{"source": "the supplement of paper PMC9112550", "about": "“Optimization of the antimicrobial peptide Bac7 by deep mutational scanning” (BMC Biology, 2022);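 also: peptides expressed intracellularly from a pBAD plasmid library in pooled LB shake-flask culture, induced with 0.3% L-arabinose, DNA abundance read by NGS, three biological replicates, DESeq2 with apeglm shrinkage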", "tested_on": "Escherichia coli TOP10", "assay": "shrunken log2 fold change of peptide-encoding DNA abundance (4.5 h post-induction vs induction); higher = less antimicrobial activity (less host growth inhibition)", "conditions": "time post-induction: 4.5 h; library: site-saturation at positions 5, 18, 19, 20", "data": [{"sequence": "RRIRRRPPRLPRPRPRPSMLPRP", "values": [{"measurement": "shrunken log2 fold change", "result": -0.172}]}, {"sequence": "RRIRNRPPRLPRPRPRPGCIPRP", "values": [{"measurement": "shrunken log2 fold change", "result": -0.173}]}, {"sequence": "RRIRRRPPRLPRPRPRPDQWPRP", "values": [{"measurement": "shrunken log2 fold change", "result": 0.224}]}, {"sequence": "RRIRVRPPRLPRPRPRPGCLPRP", "values": [{"measurement": "shrunken log2 fold change", "result": 0.236}]}, {"sequence": "RRIRNRPPRLPRPRPRPQAVPRP", "values": [{"measurement": "shrunken log2 fold change", "result": -0.0343}]}, {"sequence": "RRIRNRPPRLPRPRPRPAMKPRP", "values": [{"measurement": "shrunken log2 fold change", "result": 0.284}]}, {"sequence": "RRIRGRPPRLPRPRPRPTMHPRP", "values": [{"measurement": "shrunken log2 fold change", "result": 0.715}]}, {"sequence": "RRIRARPPRLPRPRPRPQFGPRP", "values": [{"measurement": "shrunken log2 fold change", "result": -0.217}]}, {"sequence": "RRIRKRPPRLPRPRPRPRETPRP", "values": [{"measurement": "shrunken log2 fold change", "result": 0.0512}]}, {"sequence": "RRIRQRPPRLPRPRPRPTCPPRP", "values": [{"measurement": "shrunken log2 fold change", "result": -0.0183}]}, {"sequence": "RRIRRRPPRLPRPRPRPTWVPRP", "values": [{"measurement": "shrunken log2 fold change", "result": 0.275}]}, {"sequence": "RRIRQRPPRLPRPRPRPYPWPRP", "values": [{"measurement": "shrunken log2 fold change", "result": -0.266}]}, {"sequence": "RRIRARPPRLPRPRPRPQWSPRP", "values": [{"measurement": "shrunken log2 fold change", "result": 0.245}]}, {"sequence": "RRIRKRPPRLPRPRPRPEGEPRP", "values": [{"measurement": "shrunken log2 fold change", "result": -0.0225}]}, {"sequence": "RRIRNRPPRLPRPRPRPKGDPRP", "values": [{"measurement": "shrunken log2 fold change", "result": 0.0687}]}, {"sequence": "RRIRFRPPRLPRPRPRPWRSPRP", "values": [{"measurement": "shrunken log2 fold change", "result": -0.0939}]}, {"sequence": "RRIRTRPPRLPRPRPRPLGKPRP", "values": [{"measurement": "shrunken log2 fold change", "result": 0.0663}]}, {"sequence": "RRIRWRPPRLPRPRPRPIARPRP", "values": [{"measurement": "shrunken log2 fold change", "result": -0.00663}]}, {"sequence": "RRIRERPPRLPRPRPRPLVIPRP", "values": [{"measurement": "shrunken log2 fold change", "result": -0.169}]}, {"sequence": "RRIRWRPPRLPRPRPRPPLVPRP", "values": [{"measurement": "shrunken log2 fold change", "result": 0.443}]}, {"sequence": "RRIRNRPPRLPRPRPRPDLAPRP", "values": [{"measurement": "shrunken log2 fold change", "result": 0.02}]}, {"sequence": "RRIRDRPPRLPRPRPRPTDWPRP", "values": [{"measurement": "shrunken log2 fold change", "result": 0.516}]}, {"sequence": "RRIRNRPPRLPRPRPRPYLNPRP", "values": [{"measurement": "shrunken log2 fold change", "result": -0.487}]}, {"sequence": "RRIRERPPRLPRPRPRPPWRPRP", "values": [{"measurement": "shrunken log2 fold change", "result": 0.424}]}, {"sequence": "RRIRPRPPRLPRPRPRPTHPPRP", "values": [{"measurement": "shrunken log2 fold change", "result": 0.653}]}, {"sequence": "RRIRKRPPRLPRPRPRPELLPRP", "values": [{"measurement": "shrunken log2 fold change", "result": 0.394}]}, {"sequence": "RRIRHRPPRLPRPRPRPCAMPRP", "values": [{"measurement": "shrunken log2 fold change", "result": -0.257}]}, {"sequence": "RRIRRRPPRLPRPRPRPNNEPRP", "values": [{"measurement": "shrunken log2 fold change", "result": -0.246}]}, {"sequence": "RRIRTRPPRLPRPRPRPPIKPRP", "values": [{"measurement": "shrunken log2 fold change", "result": -0.368}]}, {"sequence": "RRIRKRPPRLPRPRPRPFYNPRP", "values": [{"measurement": "shrunken log2 fold change", "result": -0.695}]}, {"sequence": "RRIRLRPPRLPRPRPRPGKEPRP", "values": [{"measurement": "shrunken log2 fold change", "result": 0.0418}]}, {"sequence": "RRIRVRPPRLPRPRPRPGCVPRP", "values": [{"measurement": "shrunken log2 fold change", "result": 0.267}]}, {"sequence": "RRIRARPPRLPRPRPRPFKAPRP", "values": [{"measurement": "shrunken log2 fold change", "result": 0.0354}]}, {"sequence": "RRIRRRPPRLPRPRPRPATAPRP", "values": [{"measurement": "shrunken log2 fold change", "result": 0.479}]}, {"sequence": "RRIRVRPPRLPRPRPRPYTLPRP", "values": [{"measurement": "shrunken log2 fold change", "result": -0.666}]}, {"sequence": "RRIRRRPPRLPRPRPRPYRIPRP", "values": [{"measurement": "shrunken log2 fold change", "result": -0.594}]}, {"sequence": "RRIRSRPPRLPRPRPRPMYTPRP", "values": [{"measurement": "shrunken log2 fold change", "result": -0.0916}]}, {"sequence": "RRIRKRPPRLPRPRPRPKSQPRP", "values": [{"measurement": "shrunken log2 fold change", "result": 0.109}]}, {"sequence": "RRIRWRPPRLPRPRPRPQTPPRP", "values": [{"measurement": "shrunken log2 fold change", "result": 1.07}]}, {"sequence": "RRIRRRPPRLPRPRPRPCQIPRP", "values": [{"measurement": "shrunken log2 fold change", "result": -0.211}]}, {"sequence": "RRIRFRPPRLPRPRPRPEKKPRP", "values": [{"measurement": "shrunken log2 fold change", "result": 0.0265}]}, {"sequence": "RRIRIRPPRLPRPRPRPHLSPRP", "values": [{"measurement": "shrunken log2 fold change", "result": -0.0549}]}, {"sequence": "RRIRRRPPRLPRPRPRPPYRPRP", "values": [{"measurement": "shrunken log2 fold change", "result": 0.113}]}, {"sequence": "RRIRRRPPRLPRPRPRPNKTPRP", "values": [{"measurement": "shrunken log2 fold change", "result": -0.00203}]}, {"sequence": "RRIRFRPPRLPRPRPRPTGLPRP", "values": [{"measurement": "shrunken log2 fold change", "result": -0.118}]}, {"sequence": "RRIRRRPPRLPRPRPRPWFGPRP", "values": [{"measurement": "shrunken log2 fold change", "result": -0.161}]}, {"sequence": "RRIRRRPPRLPRPRPRPVGDPRP", "values": [{"measurement": "shrunken log2 fold change", "result": -0.0486}]}, {"sequence": "RRIRTRPPRLPRPRPRPLFWPRP", "values": [{"measurement": "shrunken log2 fold change", "result": 0.134}]}, {"sequence": "RRIRWRPPRLPRPRPRPLPEPRP", "values": [{"measurement": "shrunken log2 fold change", "result": 0.265}]}, {"sequence": "RRIRRRPPRLPRPRPRPQTTPRP", "values": [{"measurement": "shrunken log2 fold change", "result": 0.137}]}, {"sequence": "RRIRFRPPRLPRPRPRPVVKPRP", "values": [{"measurement": "shrunken log2 fold change", "result": -0.461}]}, {"sequence": "RRIRDRPPRLPRPRPRPFFRPRP", "values": [{"measurement": "shrunken log2 fold change", "result": -0.0152}]}, {"sequence": "RRIRHRPPRLPRPRPRPDVKPRP", "values": [{"measurement": "shrunken log2 fold change", "result": -0.0186}]}, {"sequence": "RRIRNRPPRLPRPRPRPCAQPRP", "values": [{"measurement": "shrunken log2 fold change", "result": 0.127}]}, {"sequence": "RRIRYRPPRLPRPRPRPDWWPRP", "values": [{"measurement": "shrunken log2 fold change", "result": 0.0124}]}, {"sequence": "RRIRFRPPRLPRPRPRPKIHPRP", "values": [{"measurement": "shrunken log2 fold change", "result": -0.557}]}, {"sequence": "RRIRDRPPRLPRPRPRPQSAPRP", "values": [{"measurement": "shrunken log2 fold change", "result": 0.138}]}, {"sequence": "RRIRPRPPRLPRPRPRPAADPRP", "values": [{"measurement": "shrunken log2 fold change", "result": 0.282}]}, {"sequence": "RRIRERPPRLPRPRPRPIQHPRP", "values": [{"measurement": "shrunken log2 fold change", "result": -0.529}]}, {"sequence": "RRIRSRPPRLPRPRPRPRFKPRP", "values": [{"measurement": "shrunken log2 fold change", "result": 0.0925}]}, {"sequence": "RRIRYRPPRLPRPRPRPSKPPRP", "values": [{"measurement": "shrunken log2 fold change", "result": -0.833}]}, {"sequence": "RRIRPRPPRLPRPRPRPYTAPRP", "values": [{"measurement": "shrunken log2 fold change", "result": -1.06}]}]}
